Test: soluble on expression in E. coli; label from the status in PepcDB or PDB records

Sequence	soluble on expression in E. coli
MGSDKIHHHHHHMDFWKCPHCGFVVSKTHQEMTQDQWSQLNSSWHHNFENNRESRTTNQPPYADQALVLAILKENDILDLDDGLDYAAGYGTFSKCLKKYFNIGIRIFDRYVHSSDEGMRYVAQKELSRYKLVINSAMFEHVLNRHALDEVNGLVKDDGVLMLHTVVCERIPKDPGWFYIDTMVHTALHTNKSMSILMDQWGYGASIYSPQAKSWFLFKRDNPLIDDLEAKVAGINHELQTTYLHYKRGFVDYWKGF	not soluble
GPGSMGIIKHVAVILDVSEASLEQHVLERVRQLDEDTVVRRLSEEKAGKLPDFIKLSEDIIEKNDLRKSGEGSVESIQRFVCFVTDNKTRQNGMVAYAMHCLQIPVLSLTKGQKAKGNDDAEHWVSTILYKDLDGSHTDPLAAVNEFFTFPDKVGELLAVEGRDSQLTLQYCRELRSYLQRAWSAEVKLVGPNGCDMSEEGLDGTKCGETDNVEEQVEVESGIHAPLVKELLGNSQLESTHQNDHLLHGAMYALNRHENLPIIRYRLQRGVNIILCRPMSSSLEKLFNKFSRMRGGAEDVRRSFIDAVKSLLQFEGRWLDMPRRRVVLIREGVAHSWSAWLGNEVIHPLVDWIPVDVKAGNIADHCASLEASVKKAVRRLSR	soluble
MQGAQTSEDNLGSQSQPGPCGYIYFYPLATYPLREVATLGTGYAGHRCLTVPLLCGITVEPGFSINVKALHRRPDPNCGLLRATSYHRDIYVFHNAHMVPPIFEGPGLEALCGETREVFGYDAYSALPRESSKPGDFFPEGLDPSAYLGAVAITEAFKERLYSGNLVAIPSLKQEVAVGQSASVRVPLYDKEVFPEGVPQLRQFYNSDLSRCMHEALYTGLAQALRVRRVGKLVELLEKQSLQDQAKVAKVAPLKEFPASTISHPDSGALMIVDSAACELAVSYAPAMLEASHETPASLNYDSWPLFADCEGPEARVAALHRYNASLAPHVSTQIFATNSVLYVSGVSKSTGQGKESLFNSFYMTHGLGTLQEGTWDPCRRPCFSGWGGPDVTGTNGPGNYAVEHLVYAASFSPNLLARYAYYLQFCQGQKSSLTPVPETGSYVAGAAASPMCSLCEGRAPAVCLNTLFFRLRDRFPPVMSTQRRDPYVISGASGSYNETDFLGNFLNFIDKEDDGQRPDDEPRYTYWQLNQNLLERLSRLGIDAEGKLEKEPHGPRDFVKMFKDVDAAVDAEVVQFMNSMAKNNITYKDLVKSCYHVMQYSCNPFAQPACPIFTQLFYRSLLTILQDISLPICMCYENDNPGLGQSPPEWLKGHYQTLCTNFRSLAIDKGVLTAKEAKVVHGEPTCDLPDLDAALQGRVYGRRLPVRMSKVLMLCPRNIKIKNRVVFTGENAALQNSFIKSTTRRENYIINGPYMKFLNTYHKTLFPDTKLSSLYLWHNFSRRRSVPVPSGASAEEYSDLALFVDGGSRAHEESNVIDVVPGNLVTYAKQRLNNAILKACGQTQFYISLIQGLVPRTQSVPARDYPHVLGTRAVESAAAYAEATSSLTATTVVCAATDCLSQVCKARPVVTLPVTINKYTGVNGNNQIFQAGNLGYFMGRGVDRNLLQAPGAGLRKQAGGSSMRKKFVFATPTLGLTVKRRTQAATTYEIENIRAGLEAIISQKQEEDCVFDVVCNLVDAMGEACASLTRDDAEYLLGRFSVLADSVLETLATIASSGIEWTAEAARDFLEGVWGGPGAAQDNFISVAEPVSTASQASAGLLLGGGGQGSGGRRKRRLATVLPGLEV	soluble
EAAFWGASNELLHDPTMIKEGSSWYALGTGLTEERGLRVLKSSDAKNWTVQKSIFTTPLSWWSNYVPNYGQNQWAPDIQYYNGKYWLYYSVSSFGSNTSAIGLASSTSISSGGWKDEGLVIRSTSSNNYNAIDPELTFDKDGNPWLAFGSFWSGIKLTKLDKSTMKPTGSLYSIAARPNNGGALEAPTLTYQNGYYYLMVSFDKCCDGVNSTYKIAYGRSKSITGPYLDKSGKSMLEGGGTILDSGNDQWKGPGGQDIVNGNILVRHAYDANDNGIPKLLINDLNWSSGWPSY	soluble
MGSDKIHHHHHHMTASLTALRAFDAAARNGSFRAAAADLNVTPTAISHHIRGLEDQLGVKLFRREGRDVALTDDGRRLADATNQAFGLLDNAVQSLRRSARKAVRVSAGPIFTARWLMPRISDFWEAHREIELEVVPAIHPGARDRENVDIVIRWDRIADMGRDAVKLLELSPVAIASEDFVAKRGPIDHPKDLLILPLLHQRNHWGWLDWFEAMGVSLADPLYGPIFEDANVLLRGAAEGQGAIIGWLPLIDQDLAEKRVVRVFDERIAPTHGYFVDVQHNSRARVEVRAVEDWLISQS	not soluble
MDNLVWDGIPDIRTLDQTIRKHAHPLNLIVCLPDNQIPDFQTAQDASDSECRLKHRLDQATQCLQFDSINLIEHILPDVRFWLVPPSRTRRLHEHFHHISWQTEAIPQTESKSDKPWFALPQTSERKKPEHVLVIGAGIAGASTAHALASHGISVTVLEARKAAQAASGNRQGLLYAKISPHDTGQTELLLAGYGYTKRLLGHILPDSDTWGGNGIIHLNYSRTEQQRNHELGLQKHHNHLYRSITSAEAEKIAGIPLNTPYAEPLCGLYWQHGVWLNPPAFVRTLLSHPLIELYENTTLTGISHDGEKWIASTPNGTFTATHIIYCTGAHSPCLPETNLAALPLRQIRGQTGLTPSTPFSEQLRCAVSGESYISPSWHGLHCYGASFIPNSSNTGWNEAEEASNRQALAHLNPALAESLFAANPNPQKHQGHAAIRCDSPDHLPVVGALGDIAAMRQTYAKLALDKNYRIDTTCPYLPNAYTNTAHGTRGLATAPICAAAVAAEILGLPHLFSQRLRHALHPNRTVIRAIVRRQNLIPLEHHHHHH	soluble
DKPLSNMKILTLGKLSRNKDEVKAMIEKLGGKLTGTANKASLCISTKKEVEKMNKKMEEVKEANIRVVSEDFLQDVSASTKSLQELFLAHILSSWGAEVK	soluble
MDQLSEKQIWYYHIIPEYQTEKSFYACVRRSGMIKFDTFYFPHMLSARETQRSIKFGDGVWSGCLYDPDIYTDGKISIQGVGGVLFPREAEIGGCVCLCLIFLIKLGLSTKYMKSHVSFDVSCDL	not soluble
MGAAKASLGRIFPESSILFLCDMQEKLRDRILYFPQIVSMAARMLKVAQMLEIPVLLTEHYPQGLGPTVPELGAQGLRTMSKTSFSMVPPLQQELDKLPQLQSVLLRGIETQGCILHTALDLLDRGLQVHVAVDACSSQSEMNRLVALARMQQSGVFLSTSEVLILQLVKDAAHPQFKEIQKILKEPVTDIGLLGFFQGKKNSLLPNSRT	not soluble
GAMTKPRFTTGLVYDTLMLKHQCTAGSSSSHPEHAGRIQSIWSRLQETGLRGKCEAIRGRKATLEELQTVHSEAHTLLYGTNPLNRQKLDSKKLLGSLASVFVRLPCGGVGVDSDTIWNEVHSAGAARLAVGCVVELVFKVATGELKNGFAVVRPPGHHAEESTPMGFCYFNSVAVAAKLLQQRLSVSKILIVDWDVHHGNGTQQAFYSDPSVLYMSLHRYDDGNFFPGSGAPDEVGTGPGVGFNVNMAFTGGLDPPMGDAEYLAAFRTVVMPIASEFAPDVVLVSSGFDAVEGHPTPLGGYNLSARCFGYLTKQLMGLAGGRIVLALEGGYDLTAICDASEACVSALLGNELDPLPEKVLQQRPNANAVRSMEKVMEIHSKYWRCLQRTTSTAGRSLIEAQTCENEEAETVT	soluble
MKKKLVGVECLNEYICQSSNKLYADSSVILTPGARDELSRRGVTVVYGPRPESGEAPAACPPGCTCPACTAAKADSGLEQLLFAVAAMLKTEYGITDPEELKNLSCQALRTIKANL	not soluble
MAGAKHIIDTSFLTQLDRYAIPLSRRVTAVHTGSHQSTRTGAGLDIIDHRKYNQGDSLKRIDWNLYARTEKLYIRRFEEDKNLNMVILLDASSSMLFPDNTPNKFEYAATVAAGVSYIVMKHNDVYTIATFADDVDYTKSHKGRDDFLRTIDNLTQIPVSGTTKLADCADSIYPRIKSKSMVLIMSDFLDNLDSVQKAVNRLSRHELVIVHIYDENEINLPESVDGTVKFIDSETGEEISFTVGAGFKKEYASEYSKHMAELEKIAYDFKIPYFRVSIKNEPFDTVLKIIGEG	not soluble
MKFYRRIEPIKAMTFDLDDTLYDNHPVIIRMESELLTWLQQTHPAVAHMEKADWLQVKKHVLQQSPDLKSDVTLWRLVQLKHAFLSVGYDEAQAQVAAEEGVQLALEWRSQFDVPQQSL	not soluble
GPGSMFNVVLVEPEIPPNTGNVIRLCANTGARLHLIEPLGFPLDDAKMRRAGLDYHEYAQMRVHRDWDAFVAAEAPDPARMFAFTTRGSGRFHDRAFEPGDWFVFGAETRGLAPALVDRFAPEQRVRLPMRPGNRSLNLSNTVAVVVFEAWRQAGFEGGA	soluble
MSLLMTLVDEIKNRSSHVDAAIDELLPVTRPEELYKASRYLVDAGGKRLRPAVLILAAEAVGSNLRSVLPAAVAVELVHNFTLIHDDIMDRDDIRRGMPAVHVKWGEAGAILAGDTLYSKAFEILSKVENEPVRVLKCMDVLSKTCTEICEGQWLDMDFETRKKVTESEYLEMVEKKTSVLYAAAAKIGALLGGASDEVAEALSEYGRLIGIGFQMYDDVLDMTAPEEVLGKVRGSDLMEGKYTLIVINAFEKGVKLDIFGKGEATLEETEAAVRTLTECGSLDYVKNLAISYIEEGKEKLDVLRDCPEKTLLLQIADYMISREYEGHHHHHH	soluble
MGSDKIHHHHHHMNFKDCIDSYPFILMEGALGERLKREFDLDISGTVAMADLVYQQKGRLALETLWNEYIDIAYRYQLPFLATTPTRRANKERIYMAGYNESIIADNVDFLRSIKEAANVDMYIGGLMGCKGDAYTGEEALNLEEAIDFHSWQAGLFKSAKVDFLYAGIMPVLTEAIGMAVAMSDTDIPYIISFTIQRDGKLIDGHTIDDAIHCIDNHVSNKPVCYMTNCVHPDIVYEALSHKFNQTQTVKSRFWGIQANTSQLSYKELDGANHLHTSSAADLSEAILKLKSDCHLKIFGGCCGTDSSHMEKIAKISEVT	not soluble
MNINRFVLAAPGSGSGKTTVAALLCLALRARGLSVQPFKLGPDYLDPTHLTRAAGRETRNLDSFLLAPERLQTLFARAAAQAEVCVIEGVMGLYDGRDPGSDEHSTAALARLLGARVVLVIDAGGMARTVAAVAAGLRDFGEGVNVAGVILNRVGSVRHAELCAEALTQVGLACLGFLLQDDALRLPSRHLGLLSAQQASWDEAAALAAARYLDLDALLNVTRAPDLSSSSSMSPPPSTRIAYAFDSAFHFYYPDALDELRSCGAELVPFSPLEDAGVPEDVGGLLLGGGYPEAHAAELAANERMRRSVRAFAASGRPVVGECGGLMYLSETLEDENGVTHEMCGVVPYRTRMARRLSLGYRDALSLADSPLLPAGTAIRGHEFHFSTLTHEPTHPAYRWRTHDGQEVAEGYARGNVLASYLHLHYGGFPAVAARLVERCQLEHHHHHH	not soluble
MTSTSFATIELLHDPRGFATLWLNRADKNNAFNAQMIRELILALDQVQGNAGLRFLLIRGRGRHFSAGADLAWMQQAADLDYNTNLDDARELAELMYNLARLKIPTLAVVQGAAFGGALGLISCCDMAIAAEDAQFCLSEVRIGLAPAVISPFVVQAIGERATRRYALTAERFDGRQARHIGLIAECYPVADLEHQTLGWIDNLLLNSPQAMRISKELLREVGSGELTPALRRYCESAIARIRTSAEGQEGLRAFLQKRTPGWQQRDDEPAALEDRQKDSQR	not soluble

From the DeepSol protein solubility set
